According to patent US20170129954A1 (PROTHENA BIOSCIENCES, published 2017):
Substitutions are numbered along the chain they refer to.

Experiments:
Assay in all cases: shotgun mutagenesis library, immunofluorescence on BHK cells, triplicate, background-subtracted and normalized to WT
[1] = biological target: T1, human MCAM C272A mutant (shotgun mutagenesis library, on BHK cells) (human, UniProt P43121 24-646)
T1 chain: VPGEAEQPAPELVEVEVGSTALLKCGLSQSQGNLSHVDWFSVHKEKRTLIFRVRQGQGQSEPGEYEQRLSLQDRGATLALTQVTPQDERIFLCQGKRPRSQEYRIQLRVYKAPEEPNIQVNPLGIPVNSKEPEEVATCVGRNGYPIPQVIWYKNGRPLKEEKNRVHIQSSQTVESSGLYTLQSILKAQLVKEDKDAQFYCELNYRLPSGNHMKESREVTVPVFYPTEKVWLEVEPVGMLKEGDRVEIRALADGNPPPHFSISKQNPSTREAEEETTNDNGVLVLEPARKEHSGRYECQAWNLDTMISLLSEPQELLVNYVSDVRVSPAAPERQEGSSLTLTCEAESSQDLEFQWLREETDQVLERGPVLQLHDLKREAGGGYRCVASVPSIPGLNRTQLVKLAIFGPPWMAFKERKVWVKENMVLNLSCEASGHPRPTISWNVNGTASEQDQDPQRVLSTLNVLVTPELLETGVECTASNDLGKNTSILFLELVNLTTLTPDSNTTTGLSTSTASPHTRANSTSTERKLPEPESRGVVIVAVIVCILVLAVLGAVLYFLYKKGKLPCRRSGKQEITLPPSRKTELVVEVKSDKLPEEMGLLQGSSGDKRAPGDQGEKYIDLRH
Experimental: (§1) The mutation library was assayed for surface expression (mouse sera binding) and monoclonal antibody binding, in triplicate. Each raw data point was background-subtracted and normalized to the wild type MCAM reactivity values. The mean monoclonal antibody binding value for each clone is plotted as a function of its mean surface expression value (FIG. 1, gray diamonds). Thresholds of <30% monoclonal antibody reactivity and >50% mouse sera binding were applied to identify clones (FIG. 1, black diamonds) that were negative for monoclonal antibody binding but positive for surface expression.
(§2) Residues involved in antibody binding were identified as those that were negative for monoclonal antibody binding (<30% WT) but positive for surface expression (>50% WT) (Table 4). The mean reactivity (and standard deviation) were determined for each critical residue.

[2] = biological target: T2, human MCAM C320A mutant (shotgun mutagenesis library, on BHK cells) (human, UniProt P43121 24-646)
T2 chain: T1 chain with A249C, C297A
Experimental: as §1, §2

[3] = biological target: T3, human MCAM V340A mutant (shotgun mutagenesis library, on BHK cells) (human, UniProt P43121 24-646)
T3 chain: T1 chain with A249C, V317A
Experimental: as §1, §2

[4] = biological target: T4, human MCAM W377A mutant (shotgun mutagenesis library, on BHK cells) (human, UniProt P43121 24-646)
T4 chain: T1 chain with A249C, W354A
Experimental: as §1, §2

B1: mouse anti-human MCAM monoclonal antibody clone 1749.1.3 (antibody, V domains shown)
VH: DVKLVESGGDLVKPGGSLKLSCAASGFTFSSYIMSWVRQTPEKRLEWVATISSGGSSTYYPDSVKGRFTISRDNAKNTLYLQMSSLKSEDTAMYYCTRDDDYDVKVFAYWGQGTLVTVSA
VL: DIVMSQSPSSLAVSAGEKVTMNCKSSRSLLNSRIRKNYLAWYQQKPGQSPKLLIYWASTRESGVPDRFTGSGSGTDFTLTISSVQAEDLAVYYCKQSYNLLTFGAGTKLELK
notes: Mouse hybridoma monoclonal antibody; also called m1749
- mean reactivity (% of wild type MCAM), standard deviation in brackets [1]: 7.6 % of WT
- mean reactivity (% of wild type MCAM), standard deviation in brackets [2]: 9.3 % of WT
- mean reactivity (% of wild type MCAM), standard deviation in brackets [3]: 8.7 % of WT
- mean reactivity (% of wild type MCAM), standard deviation in brackets [4]: 13.7 % of WT
